One experiment has as its target BCL2-mCherry (wild type) (UniProt P10415). As to the kind of experiment: single-molecule pull-down and co-IP.
A further experiment deals with BCL2 D103E-mCherry (UniProt P10415). Kind of experiment: single-molecule pull-down and co-IP.

As to “BH3 domain of BIM, eGFP-labeled (domain or fragment)”, the results for the Kd with BCL2-mCherry (wild type) and in the experiment with BCL2 D103E-mCherry were 53.6 nM and 32.1 nM, respectively.
With “BIML, TMD-truncated, eGFP-labeled (domain or fragment)”, the Kd (in general, a measure of binding affinity in units of concentration) with BCL2-mCherry (wild type) is 63.3 nM.
On to “BIMEL, TMD-truncated, eGFP-labeled (domain or fragment)”, for which, in the experiment with BCL2-mCherry (wild type), the Kd stood at 27.3 nM.
As for “BIMS, TMD-truncated, eGFP-labeled (domain or fragment)”, the Kd in the experiment with BCL2-mCherry (wild type) turned out to be 15.7 nM.

The values are drawn from article doi:10.1101/2024.02.04.578783.
